Patent US20030054488A1 (published 2003)
Substitutions are numbered along the chain they refer to.

Tests used:
[1] = biological target: T1, HeLa1 beta-galactosidase-derived fusion protein containing the N-terminal 150 residues of GPBP (human, UniProt Q5R6M6 1-150 (Pongo abelii entry)); experiment: lambda-gt11 expression library filters overlaid with GPpep1, detected with monoclonal antibody
T1 construct: Expressed from the lambda-gt11 clone on library filters and as a lysogen in E. coli Y1089; also called HeLa1 lambda-gt11 fusion protein; not shown: beta-galactosidase part encoded by the lambda-gt11 vector
T1 sequence: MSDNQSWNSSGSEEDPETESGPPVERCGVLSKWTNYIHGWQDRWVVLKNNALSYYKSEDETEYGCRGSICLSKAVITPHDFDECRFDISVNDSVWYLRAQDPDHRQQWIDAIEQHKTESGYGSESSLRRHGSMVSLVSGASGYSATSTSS
Description: Isolation and characterization of cDNA clones encoding human GPBP—Several human λ-gt11 cDNA expression libraries (eye, fetal and adult lung, kidney and HeLa S3, from CLONTECH) were probed for cDNAs encoding proteins interacting with GPpep1. Nitrocellulose filters (Millipore) prepared following standard immunoscreening procedures were blocked and incubated with 1-10 nmoles per ml of GPpep1 at 37° C. Specifically bound GPpep1 was detected using M3/1A monoclonal antibodies (7). A single clone was identified in the HeLa-derived library (HeLa1). Specificity of fusion protein binding was confirmed by similar binding to recombinant eukaryotic human GP antigen. The EcoRI cDNA insert of HeLa1 (0.5-kb) was used to further screen the same library and to isolate overlapping cDNAs. The largest cDNA (2.4-kb) containing the entire cDNA of HeLa1 (n4′) was fully sequenced.

[2] = biological target: T2, rMBP Ser to Ala mutant in position 8, P02686
T2 chain: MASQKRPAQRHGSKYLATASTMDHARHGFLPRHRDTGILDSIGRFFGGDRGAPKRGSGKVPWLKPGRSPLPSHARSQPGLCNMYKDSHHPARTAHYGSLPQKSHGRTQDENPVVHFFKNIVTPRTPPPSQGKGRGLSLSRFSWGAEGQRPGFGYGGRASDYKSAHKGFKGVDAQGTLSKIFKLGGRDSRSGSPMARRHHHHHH

[3] = biological target: T3, rMBP Ser to Ala mutant in position 57, P02686
T3 chain: T2 chain with A8S, S57A

GPpep1 Ala9 = biological target: T4, GPpep1 Ala9
T4 chain: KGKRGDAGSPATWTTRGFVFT

GPΔIII derived peptide = biological target: T5, GPΔIII derived peptide
T5 chain: QRAHGQDLDALFVKVLRSP

[4] = biological target: T6, rMBPΔII Ser to Ala mutant in position 57
T6 chain: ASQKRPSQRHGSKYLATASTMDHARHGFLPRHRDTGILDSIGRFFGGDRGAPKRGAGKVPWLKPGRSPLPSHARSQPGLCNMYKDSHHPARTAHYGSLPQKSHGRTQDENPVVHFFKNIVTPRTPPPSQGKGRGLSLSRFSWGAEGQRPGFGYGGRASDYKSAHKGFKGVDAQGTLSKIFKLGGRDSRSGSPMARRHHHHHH

[5] = biological target: T7, Human recombinant GP antigen (rGP) produced in 293 cells, Q01955
T7 chain: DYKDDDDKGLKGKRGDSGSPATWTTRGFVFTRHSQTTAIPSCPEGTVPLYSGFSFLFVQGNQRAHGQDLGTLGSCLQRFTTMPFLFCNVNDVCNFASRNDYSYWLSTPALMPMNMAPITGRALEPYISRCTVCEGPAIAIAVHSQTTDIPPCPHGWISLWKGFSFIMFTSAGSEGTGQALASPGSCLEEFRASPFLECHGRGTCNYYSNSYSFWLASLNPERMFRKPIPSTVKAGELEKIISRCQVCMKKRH

[6] = biological target: T8, native human GP antigen (alpha3(IV)NC1 domain), Q01955
T8 chain: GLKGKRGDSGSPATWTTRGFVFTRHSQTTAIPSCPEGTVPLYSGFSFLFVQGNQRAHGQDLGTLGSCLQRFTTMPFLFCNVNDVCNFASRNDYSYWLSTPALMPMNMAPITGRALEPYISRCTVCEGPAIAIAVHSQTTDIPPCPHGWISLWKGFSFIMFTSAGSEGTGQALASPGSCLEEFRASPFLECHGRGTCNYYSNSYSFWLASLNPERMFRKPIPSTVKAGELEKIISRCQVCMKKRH

[7] = biological target: T9, recombinant 21 kDa myelin basic protein (rMBP), P02686
T9 chain: T2 chain with A8S

GPpep1 = biological target: T10, GPpep1
T10 chain: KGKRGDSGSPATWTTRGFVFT

[8] = biological target: T11, recombinant 18.5 kDa myelin basic protein lacking exon II (rMBPΔII)
T11 chain: T6 chain with A56S

[9] = biological target: T12, rMBPΔII Ser to Ala mutant in position 8
T12 chain: T6 chain with S7A, A56S

[10] = biological target: the molecule itself; experiment: gel filtration HPLC and analytical ultracentrifugation (peak II 220±10 kDa, likely trimers)
Description: FIG. 11. rGPBP and rGPBPΔ26 form very active high molecular weight aggregates. About 300 μg of rGPBP (A) or rGPBPΔ26 (B) were subjected to gel filtration HPLC as described under Material and Methods. Vertical arrowheads and numbers respectively indicate the elution profile and molecular mass (kDa) of the molecular weight standards used. Larger aggregates eluted in the void volume (I), and the bulk of the material present in the samples eluted in the fractionation range of the column as a second peak between the 669 and 158 kDa markers (II). Fifteen microliters of the indicated minute fractions were subjected to SDS-PAGE and Coomasie blue staining. Five microliters of the same fractions were in vitro phosphorylated as described in Materials and Methods, and the reaction stopped by boiling in SDS sample buffer. […]
Gel-filtration HPLC. […] The material was eluted from the column at 0.5 ml/min, monitored at 220 nm and minute fractions collected.
rGPBP and rGPBP-26 exist as very active high molecular weight aggregates. Gel filtration analysis of affinity-purified rGPBP or rGPBPΔ26 yielded two chromatographic peaks (I and II), both displaying higher MW than expected for the individual molecular species, as determined by SDS-PAGE studies (89 kDa and 84 kDa, respectively ) (FIG. 11). […] ATP, and analyzed by immunoblot and autoradiography.

B1: GPpep1 (peptide)
peptide: KGKRGDSGSPATWTTRGFVFT
notes: also called 21-residue peptide representing residues 3-23 of the human GP antigen
B1: binds [1].

B2: FLAG-tagged recombinant GPBP (rGPBP) (protein)
chain: DYKDDDDKMSDNQSWNSSGSEEDPETESGPPVERCGVLSKWTNYIHGWQDRWVVLKNNALSYYKSEDETEYGCRGSICLSKAVITPHDFDECRFDISVNDSVWYLRAQDPDHRQQWIDAIEQHKTESGYGSESSLRRHGSMVSLVSGASGYSATSTSSFKKGHSLREKLAEMETFRDILCRQVDTLQKYFDACADAVSKDELQRDKVVEDDEDDFPTTRSDGDFLHSTNGNKEKLFPHVTPKGINGIDFKGEAITFKATTAGILATLSHCIELMVKREDSWQKRLDKETEKKRRTEEAYKNAMTELKKKSHFGGPDYEEGPNSLINEEEFFDAVEAALDRQDKIEEQSQSEKVRLHWPTSLPSGDAFSSVGTHRFVQKPYSRSSSMSSIDLVSASDDVHRFSSQVEEMVQNHMTYSLQDVGGDANWQLVVEEGEMKVYRREVEENGIVLDPLKATHAVKGVTGHEVCNYFWNVDVRNDWETTIENFHVVETLADNAIIIYQTHKRVWPASQRDVLYLSVIRKIPALTENDPETWIVCNFSVDHDSAPLNNRCVRAKINVAMICQTLVSPPEGNQEISRDNILCKITYVANVNPGGWAPASVLRAVAKREYPKFLKRFTSYVQEKTAGKPILF
B2 was tested, and the “^32P incorporation, in situ phosphorylation of blotted substrate” value (from here on “^32P incorporation … of blotted substrate”) [2] was “recombinant Ser to Ala mutants displayed no significant reduction in ^32P incorporation”, the “^32P incorporation … of blotted substrate” value [3] was “recombinant Ser to Ala mutants displayed no significant reduction in ^32P incorporation” and the “^32P incorporation, in vitro phosphorylation” value (GPpep1 Ala9) was “The lower ^32P incorporation displayed by GPpep1 Ala^9 when compared with GPpep1”. For the same binder, the “GPBP autophosphorylation, 5 nmol peptide, Boc chemistry” value (GPΔIII derived peptide) was “Boc-based synthetic peptides positively influenced GPBP autophosphorylation”, the “GPBP autophosphorylation, 5 nmol peptide, Fmoc chemistry” value (GPΔIII derived peptide) was “Fmoc-based inhibited GPBP autophosphorylation” and the “^32P incorporation, in vitro phosphorylation” value (native bovine GP antigen) was “no appreciable ^32P-incorporation was observed in the bovine-derived substrate”. For the same binder, the “^32P incorporation … of blotted substrate” value [4] was “recombinant Ser to Ala mutants displayed no significant reduction in ^32P incorporation”, the “^32P incorporation, in vitro phosphorylation” value [5] was “Affinity-purified rGPBP phosphorylates all human-derived material to a different extent” and the “^32P incorporation, in vitro phosphorylation” value [6] was “Affinity-purified rGPBP phosphorylates all human-derived material to a different extent”. For the same binder, the “^32P incorporation … of blotted substrate” value [7] was “GPBP preferentially phosphorylated MBP”, the “^32P incorporation, in vitro phosphorylation” value (GPpep1) was “Affinity-purified rGPBP phosphorylates all human-derived material to a different extent” and the “^32P incorporation … of blotted substrate” value [8] was “little phosphorylation of MBPΔII was observed”. For the same binder, the “^32P incorporation … of blotted substrate” value [9] was “recombinant Ser to Ala mutants displayed no significant reduction in ^32P incorporation”.

B3: FLAG-tagged recombinant GPBP (rGPBP) (enzyme)
chain: B2 chain
modifications: contains phosphoserine, phosphothreonine and phosphotyrosine; positions not given
notes: Expressed in Pichia pastoris (pHIL-FLAG-n4') or in 293 cells (pc-FLAG-n4'); ON-GPBP-54m also encodes an initiation Met and a few residues before the FLAG; also called yeast rGPBP; FLAG-n4'
B3: binds [10].
